From US20210388087A1 (Chugai, published 2021)
Where a chain is given by its changes, count along the chain named. Names and notes keep the numbering of the source. Values belong to the binder of their own block, whether it stands above or below them.

Assays:
Human CD137 ECD = biological target: T1, Human CD137 ECD (human); assay: Biacore SPR, vs parent H183/L072
T1 construct: entry includes C-terminal His-tag and biotin acceptor peptide; also called human CD137 extracellular domain; 4-1BB

Human CD3eg linker = biological target: T2, Human CD3eg linker (human); assay: SPR; fold vs parent H183/L072
T2 construct: Single-chain construct; also called recombinant human CD3
T2 chain: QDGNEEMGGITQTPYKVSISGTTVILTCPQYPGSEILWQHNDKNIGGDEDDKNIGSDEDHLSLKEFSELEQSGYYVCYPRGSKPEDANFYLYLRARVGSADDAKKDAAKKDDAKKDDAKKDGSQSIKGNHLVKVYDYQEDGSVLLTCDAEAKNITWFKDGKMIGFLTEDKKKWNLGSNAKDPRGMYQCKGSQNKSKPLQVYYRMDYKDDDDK

T1 sequence (chain, as listed by the source limits assumed): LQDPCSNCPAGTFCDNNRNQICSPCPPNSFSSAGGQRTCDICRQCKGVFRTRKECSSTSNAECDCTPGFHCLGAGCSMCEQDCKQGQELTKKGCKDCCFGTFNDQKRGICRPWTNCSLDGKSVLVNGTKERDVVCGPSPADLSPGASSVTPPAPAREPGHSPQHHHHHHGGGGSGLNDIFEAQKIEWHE

fold change of affinity (Human CD137 ECD): 0 fold
B1: H183/L072 VL V94S (antibody, name in Kabat numbering, V domains shown)
VH: QVQLVESGGGLVQPGRSLRLSCAASGFTFSNAWMHWVRQAPGKGLEWVAQIKDKGNAYAAYYAPSVKGRFTISRDDSKNSIYLQMNSLKTEDTAVYYCHYVHYASASTVLPAFGVDAWGQGTTVTVSS
VL: DIVMTQSPLSLPVTPGEPASISCQASQELVHMNRNTYLHWYQQKPGQAPRLLIYKVSNRFPGVPDRFSGSGSGTDFTLKISRVEAEDVGVYYCAQGTSSPFTFGQGTKLEIK
notes: Dual-Ig

fold change of affinity (Human CD3eg linker): 0.8 fold
B2: H183/L072 VL S26A (antibody, name in Kabat numbering, V domains shown)
VH: B1 VH
VL: B1 VL with S26A, S99V

fold change of affinity (Human CD137 ECD): 0.7 fold
B3: H183/L072 VL Y32W (antibody, name in Kabat numbering, V domains shown)
VH: B1 VH
VL: B1 VL with Y37W, S99V
notes: Dual-Ig

fold change of affinity (Human CD3eg linker): 0 fold
B4: H183/L072 VL A25R (antibody, name in Kabat numbering, V domains shown)
VH: B1 VH
VL: B1 VL with A25R, S99V

fold change of affinity (Human CD137 ECD): 0.2 fold
B5: H183/L072 VL Y32L (antibody, name in Kabat numbering, V domains shown)
VH: B1 VH
VL: B1 VL with Y37L, S99V
notes: Dual-Ig

fold change of affinity (Human CD137 ECD): 1.7 fold
B6: H183/L072 VL Y32F (antibody, name in Kabat numbering, V domains shown)
VH: B1 VH
VL: B1 VL with Y37F, S99V
notes: Dual-Ig

fold change of affinity (Human CD137 ECD): 0.1 fold
B7: H183/L072 VL Y32A (antibody, name in Kabat numbering, V domains shown)
VH: B1 VH
VL: B1 VL with Y37A, S99V
notes: Dual-Ig

fold change of affinity (Human CD3eg linker): 0 fold
B8: H183/L072 VL A89E (antibody, name in Kabat numbering, V domains shown)
VH: B1 VH
VL: B1 VL with A94E, S99V

fold change of affinity (Human CD3eg linker): 0 fold
B9: H183/L072 VL A25D (antibody, name in Kabat numbering, V domains shown)
VH: B1 VH
VL: B1 VL with A25D, S99V

fold change of affinity (Human CD137 ECD): 0 fold
B10: H183/L072 VL Y32P (antibody, name in Kabat numbering, V domains shown)
VH: B1 VH
VL: B1 VL with Y37P, S99V
notes: Dual-Ig

fold change of affinity (Human CD3eg linker): 0 fold
B11: H183/L072 VL A25E (antibody, name in Kabat numbering, V domains shown)
VH: B1 VH
VL: B1 VL with A25E, S99V

fold change of affinity (Human CD3eg linker): 1.1 fold
B12: H183/L072 VL A25T (antibody, name in Kabat numbering, V domains shown)
VH: B1 VH
VL: B1 VL with A25T, S99V

fold change of affinity (Human CD137 ECD): 0.2 fold
B13: H183/L072 VL Y32Q (antibody, name in Kabat numbering, V domains shown)
VH: B1 VH
VL: B1 VL with Y37Q, S99V
notes: Dual-Ig

fold change of affinity (Human CD137 ECD): 0.1 fold
B14: H183/L072 VL Y32H (antibody, name in Kabat numbering, V domains shown)
VH: B1 VH
VL: B1 VL with Y37H, S99V
notes: Dual-Ig

fold change of affinity (Human CD3eg linker): 0.2 fold
B15: H183/L072 VL A89F (antibody, name in Kabat numbering, V domains shown)
VH: B1 VH
VL: B1 VL with A94F, S99V

fold change of affinity (Human CD3eg linker): 1.3 fold
B16: H183/L072 VL A25S (antibody, name in Kabat numbering, V domains shown)
VH: B1 VH
VL: B1 VL with A25S, S99V

fold change of affinity (Human CD3eg linker): 0.9 fold
B17: H183/L072 VL A25V (antibody, name in Kabat numbering, V domains shown)
VH: B1 VH
VL: B1 VL with A25V, S99V

fold change of affinity (Human CD137 ECD): 0 fold
B18: H183/L072 VL Y32I (antibody, name in Kabat numbering, V domains shown)
VH: B1 VH
VL: B1 VL with Y37I, S99V
notes: Dual-Ig

fold change of affinity (Human CD137 ECD): 0 fold
B19: H183/L072 VL V94W (antibody, name in Kabat numbering, V domains shown)
VH: B1 VH
VL: B1 VL with S99W
notes: Dual-Ig

fold change of affinity (Human CD137 ECD): 0 fold
B20: H183/L072 VL Y32V (antibody, name in Kabat numbering, V domains shown)
VH: B1 VH
VL: B1 VL with Y37V, S99V
notes: Dual-Ig

fold change of affinity (Human CD3eg linker): 0.9 fold
B21: H183/L072 VL A25G (antibody, name in Kabat numbering, V domains shown)
VH: B1 VH
VL: B1 VL with A25G, S99V

fold change of affinity (Human CD3eg linker): 0 fold
B22: H183/L072 VL A25H (antibody, name in Kabat numbering, V domains shown)
VH: B1 VH
VL: B1 VL with A25H, S99V

fold change of affinity (Human CD3eg linker): 0.5 fold
B23: H183/L072 VL A25N (antibody, name in Kabat numbering, V domains shown)
VH: B1 VH
VL: B1 VL with A25N, S99V

fold change of affinity (Human CD137 ECD): 0 fold
B24: H183/L072 VL Y32M (antibody, name in Kabat numbering, V domains shown)
VH: B1 VH
VL: B1 VL with Y37M, S99V
notes: Dual-Ig

fold change of affinity (Human CD3eg linker): 0 fold
B25: H183/L072 VL A25Q (antibody, name in Kabat numbering, V domains shown)
VH: B1 VH
VL: B1 VL with A25Q, S99V

fold change of affinity (Human CD137 ECD): 0.1 fold
B26: H183/L072 VL Y32G (antibody, name in Kabat numbering, V domains shown)
VH: B1 VH
VL: B1 VL with Y37G, S99V
notes: Dual-Ig

fold change of affinity (Human CD3eg linker): 0 fold
B27: H183/L072 VL A25K (antibody, name in Kabat numbering, V domains shown)
VH: B1 VH
VL: B1 VL with A25K, S99V

fold change of affinity (Human CD3eg linker): 0 fold
B28: H183/L072 VL A89D (antibody, name in Kabat numbering, V domains shown)
VH: B1 VH
VL: B1 VL with A94D, S99V

fold change of affinity (Human CD137 ECD): 0.4 fold
B29: H183/L072 VL V94T (antibody, name in Kabat numbering, V domains shown)
VH: B1 VH
VL: B1 VL with S99T
notes: Dual-Ig

fold change of affinity (Human CD3eg linker): 1.2 fold
B30: H183/L072 VL A25P (antibody, name in Kabat numbering, V domains shown)
VH: B1 VH
VL: B1 VL with A25P, S99V

fold change of affinity (Human CD3eg linker): 0 fold
B31: H183/L072 VL A25M (antibody, name in Kabat numbering, V domains shown)
VH: B1 VH
VL: B1 VL with A25M, S99V

fold change of affinity (Human CD137 ECD): 0.2 fold
B32: H183/L072 VL Y32N (antibody, name in Kabat numbering, V domains shown)
VH: B1 VH
VL: B1 VL with Y37N, S99V
notes: Dual-Ig

fold change of affinity (Human CD3eg linker): 0.3 fold
B33: H183/L072 VL A25I (antibody, name in Kabat numbering, V domains shown)
VH: B1 VH
VL: B1 VL with A25I, S99V
